Experimental findings from publication PMC6908506, “Development of Foot-and-Mouth Disease Virus-Neutralizing Monoclonal Antibodies Derived From Plasmablasts of Infected Cattle and Their Germline Gene Usage” (Frontiers in Immunology, 2019) are described below.

For assay [1], the target named is T1, FMDV O/Mya/98 146S antigen (Foot-and-mouth disease virus serotype …, UniProt G8JKC2, strain).
T1 construct: also called purified virus antigen; copies: + + +
The experiment in a line: ELISA. Conditions: both partners purified.

Assay [2] concerns the target T1, FMDV O/Mya/98 146S antigen. The experiment in a line: cell-based or functional assay.

B1: 62 (antibody, V domains shown)
VH: QVQLRESGPSLVKPSQTLSLTCTVSGFSLSDKDVGWVRQAPGTALEWLAVIYNAGSTSYNPTLESRLSITKDNSKSQVSLSLSSVTTEDTATYYCALGNYWAWGQGLLVTVSS
VL: QAALTQPSSVSGSLGQRVSITCSGSSSNIGRGNYVNWFQQIPGSAPRTLIYGATNRASGVPDRFSGSRSGDTATLTISPLQAEDEADYFCAAYDINGNAVFGSGTTLTVL
In the case of B1, the binding result in assay [1] was “binds”.

B2: A35 (antibody, V domains shown)
VH: QVQLRESGPSLVKPSQTLSLTCTVSGFSLSSNGVIWVRQAPGKALEWLGGICGGGSTSFNPSLKSRLTITKDNSKNQVSLSVRSVTPEDTATYYCARSCGSYRDAWYDCASDGYRYHNYVDAW
VL: QAVLTQPSSVSGSLGQRVSITCSGSNNNIGSYAVGWYQQVPGSGLRTIIYGSTIRPSGVPDRFSGSKSRSTATLTISSLQAEDEADYFCATADYSSSTVVFGSGTTLTVL
Turning to B2, the “virus neutralizing test on BHK-21 cells, IC50” value (“virus neutralizing test” below) in assay [2] stood at 1.43 µg/mL.

B3: A7 (antibody, V domains shown)
VH: QVQLRESGPSLVKPSQTLSLTCTVSGFSLSSYAVNWVRQAPGKALECLGGISSSGSTGYKPALKSRLSITKDNSKSQVSLSVSNVTPEDTATYYCVKSYWDYNDYGCCSGGNGVGFDAWGQGLLVTVSS
VL: QAVLTQPSSVSGSLGQRVSITCSGSSNNIGSYAVGWYQQVPGSGLRTIIYSSSSRPSGVPDRFSGSKSGNTATLTISSLQAEDEADYFCATADYSRSTAVFGSGTILTVL
Consider B3, for which the binding result in assay [1] was “binds”.

B4: B81 (antibody, V domains shown)
VH: QVQLRESGPSLVKPSQTLSLTCTVSGFSLSNYAIGWVRQAPGKAPEWVVDTDVDGGTAYNPALKSRLSITKDNSKSQVSLSLNGVTPEDTATYYCVKLSRESAWLFFHVDAWGQGLLITISS
VL: QAVLTQPSSVSGSLGQSVSITCSGSSGNIGRYGVDWYQQVPGSGLRTIIYASSRRPSGVPDRFSGSKSGNTATLTISSLQAEDEADYFCAGGDENIIVPLFGAGTTLTVL
notes: also called HRP-B81
Regarding B4, the binding result in assay [1] is recorded as “binds”.

B5: F128 (antibody, V domains shown)
VH: QVQLRESGPSLVKPSQTLSLTCTVSGFSLGTYTVTWVRQAPGKALEWVGEISGGGDTDYNPALKSRLSITKHNSKSQVSLSVSSVTPEDTATYYCARCYSTCGCGLSCTSEDSYYVNAWGQGLLVTVSS
VL: QAVLTQPSSVSGSLGQRVSITCSGSSSNIGSYNVGWYQQVPGSGLTTIIYGTNNRPSGVPDRFSGSKSGNTATLTISSLRAEDEADYFCVTYDSTSSTIFGTGTTLTVL
Consider B5, for which the “virus neutralizing test” value in assay [2] was found to be 0.98 µg/mL.

B6: F136 (antibody, V domains shown)
VH: QVQLRESGPSLVKPSQTLSLTCTVSGFSLSSKGVHWIRQAPGKALEWLGSTWSFGSAFNPALKSRLSITKDNSKSQVALSLSTVTPEDTATYYCARELYNGGSTWDAINGYNEERYYFDAWGQGLLVTVSS
VL: QAVLTQPSSVSGSLGQSVSITCSGSSSNVGYGNYVSWFQQIPGSAPRMLIYGATSRASGVPYRFSGSRSGNTATLTINSLQAEDEADYFCASPDSSSSGYFAVFGSGTTLTVL
Take B6: the “virus neutralizing test” value in assay [2] was 1.67 µg/mL.

B7: F28 (antibody, V domains shown)
VH: QVQLRESGPSLVKPSQTLSLTCTVSGFSLNTYSVYWVRQVPGKALECIGGISSREARGYNPALKPRLSITKDNSKSQVSLSLSSVTTDDTATYYCAKAARGYAFTCGGISSHSDHYVDAWGQGLLVTVSS
VL: QAVLTQPSSVSGSLGQRVSISCSGSSSNVGTGNHVSWFQQIPGSAPRTLIYGATRRLSGVPDRFSGSRSGNTATLTISSLQAEDEADYFCASWQSDSTTVFGSGTTLTVL
As to B7, the “virus neutralizing test” value in assay [2] amounted to 3.33 µg/mL.

B8: B54 (antibody, V domains shown)
VH: QVQLRESGPSLVKPSQTLSLTCTVSGFSLSSNAVVRVRQAPGKTLEWLGGICSGGATSFNPALKSRLSITKDNSKSQVSLSVSSVTPEDTATYYCMRVGSCFGCGDRCGYGYPYTYVDVWGQGLLVTVSP
VL: QAVLTQPSSVSGSLGQRVSITCSGSSSNVGTGNYVSWFQQIPGSAPRTLIYGATSRASGVPDRFSGSRSGNTATLTISSLQAEDEADYFCASYQIGNTAVFGSGTTLTVL
In the case of B8, the binding result in assay [1] was “binds”.

B9: E32 (antibody, V domains shown)
VH: QVQLRESGPSLVKPSQTLSLTCTVSGFSLSNYALNWVRQAPGKALECLGGIGPSGHTDYNPALKSRLIITKDNSKNQVSLSVSSVTPEDTATYICARDSGIYGTSGWGCIGGFDDNYIDAWGHGLLVTVSS
VL: QAVLTQPSSVSGSLGQRVSITCSGSSNNIGAHGVGWYQQIPGSGLRTIIYNNSKRPSGVPDRFSGSKSGNTATLTISSLQAGDEADYFCATSDYSTRSSAFGSGTTLTVL
As for B9, the binding result in assay [1] was “binds”.

B10: E28 (antibody, V domains shown)
VH: QVQLRESGPSLVKPSQTLSLTCTISGFSLSDYAVAWVRQAPGKAPEWVGGISTGGRTNYNPTLESRLSITKDNAKSQISLTVSSVTPEDTATYLCLRLACYDHEGYRCFGYDLNWGVDAWGQGLLVSVSS
VL: QAVLTQPSSVSGSLGQRVSITCSGSSTNIGTYYVGWYQQVPGSGLRTIIYGTTNRPSGVPDRFSGSKSSGNTATLTISSLQAEDEADYFCVTYDSTITPSAVFGSGTTLTVL
On to B10, for which the binding result in assay [1] was “binds”.

B11: B51 (antibody, V domains shown)
VH: QVQLRESGPSLVKPSQTLSLTCTVSGFSLSSYGVIWVRQAPGKALECLGQITTGGITGYNPALKSRLSITKDNSEGQVSLSLSSVTTEDTATYYCVKEHDNYGDFSGGCLHAAYVDTWGQGLLVTVSS
VL: QAVLTQPSSVSGSLGQRVSITCSGSSSNIGLYAVGWYQQVPGSGLRSIIYSSRSRPSGVPDRFSGSKSGNTATLTISSLQAEDEADYFCVAYDSSSDSAIFGSGTTLTVL
On to B11, for which the binding result in assay [1] was “binds”.

B12: E50 (antibody)
VH: QVQLRESGPSLVKPSQTLSLTCTASGFSLSDKAVGWVRQAPGKALEWLGSVDTSGSTGYNPGLESRLIITKDNSKSRVSLSVHSVTSEDSATYYCVTVHQKSRDEKSCPDGYIDGAGCKYGWPCSDQDCCVCSSCVYGYSGMNCVPARYSESYEWNVEAWGQGLLVTVSS
VL: QAVLTQPSSVSGSLGQRVSITCSGSSTNVGNGYVSWYQLIPGSAPRTLIYGDTTRASGVPDRFSGSRSGNTATLTISSLQAEDEADYSCASAEDSSSNAVFGSGTTLTVL
In the case of B12, the “virus neutralizing test” value in assay [2] was 11.5 µg/mL.

B13: E54 (antibody)
VH: QVHLRESGPSLVKPSQTLSLTCTASGFSLSDRAVGWVRQAPGKALEWLGSIDTGGTTGYNPGLKSRLRITKDNSKSQVSLSVSTVTTDDSATYYCGAVYQTTETKTTCPEGYSNTGDCDDDCCCWGSDCSRYARWKRYRGGWFSSDYIVTEVYEFHVDAWGQGLLVSVSS
VL: QAVLTQPSSVSGSLGQRVSITCSGSSSNVGNGYVSWYQLIPGSTPRTLIYGDTSPASGVPDRFSGSRSGNTATLTIISFQAEDEADYFCASAEDSSSNVVFGSGTTLTVL
With B13, the “virus neutralizing test” value in assay [2] was 3.65 µg/mL.

B14: F103 (antibody)
VH: QVQLRESGPSLVKPSQTLSLTCTASGFSLSDKAVGWVRQAPGKALEWLGSIDTGGNSGYNPGLKSRLSITKDNSKSQASLSVSSVITGDSATYYCAIVHQETVRKTSGSDAYTCPDGCVLSPACSRERRCLCGTWPRDYCVDHIQSSTYNFYVEAWGQGLLVTVSS
VL: QAVLTQPSSVSESLGQRVSITCSGISSSVGNGYVSWYQLIPGSAPRTLIYGDTSRASGVPDRFSGSRSGNTATLTISSLQAEDEADYFCASADGSSSNAIFGSGTTLTVL
On to B14, for which the “virus neutralizing test” value in assay [2] is 6.22 µg/mL.
